Measured values from the supplement of paper PMC9170038.

Tested on: MS2 coat protein
Experiment: apparent KD of MS2 coat protein; designed switch direction (-1 OFF switch, 1 ON switch): -1; higher = weaker reporter binding
Procedure, shortened: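 Normalised cluster fluorescence was curve-fitted, and each design's median over clusters is its apparent KD. Before this, SNAP-549-labelled MS2 coat protein was titrated from 0.7 or 1.5 nM, doubling to 3 µM, over RNA switches transcribed on Illumina chips by stalled E. coli RNA polymerase. Titrations had no input, 200 uM small-molecule ligand, or an oligonucleotide input, and steps lasted 0.8–1.5 h (lowest) to 10–20 min (highest).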

[1] = Eterna round: R95, input ligand: microRNA oligo, concentration not stated
[2] = input ligand: microRNA oligo, concentration not stated
[3] = Eterna round: R95, input ligand: FMN 200 uM
[4] = Eterna round: R95, input ligand: none

Sequence	apparent KD of MS2 coat protein [1] [nM]	apparent KD of MS2 coat protein (input ligand: FMN 200 uM) [nM]	apparent KD of MS2 coat protein (input ligand: none) [nM]	further results
UUUUAGUCAGGAUAUACAUUUUUUUAUUUAUUUAUAAUAUUACAUGAGGAUCACCCAUGUAGAAGGGACAUUUU [My Design] (puzzle: Exclusion 2)	29.6			
AUCGUGCAGCAAAGCUGUACGAGUACAUGAGGAUCACCCAUGUAGGAUAUGGUACGCAAAGCGUGCUAGAAGGAUAUGUGUAGG [Mat - Exclusion NG 3 - Mod of JL - D84] (Eterna round: R96, puzzle: Exclusion NG 3)		69.6	57.1	apparent KD of MS2 coat protein [2]: 44.6 nM
AACCUACAUGAGGAUCACCCAUGUGAGGAUAUAUUGGUAUUGAUGUUAUUUUUUAGAGGUAGAAGGCGCGUGAU [JR_Exc1_Sub022] (Eterna round: R97, puzzle: Exclusion 1)		15	14	
GAAUUCCGAGGAUAUUCGGAACCAGACAUGAGGAUCACCCAUGUGAUGCAGUUUCCGUUCGAAGAAGGUGGAACGC [Eternabot (Original) Solution 28] (Eterna round: R97, puzzle: Exclusion 5)		22.5	23.3	
UUGAUUCAUUCCUCCAUAAACAUGAGGAUCACCCAUGUAAGUGAGGAUAUAGUUGGAGUAGUAUACUAGAAGGCACUUAGAUAU [JR_ExcNG3_Sub047] (Eterna round: R96, puzzle: Exclusion NG 3)				apparent KD of MS2 coat protein [2]: 8.77 nM
GGUUGGCGAGGAUAUACAUGAGGAUCACCCAUGUGGUCCUGUGGCUGAUCUAGCCUAUGUAGAAGGCGCAAAUC [salish99_ex3_r4_013] (Eterna round: R97, puzzle: Exclusion 3)		311	139	
AGUAGUAGUAUCCGGUCCUACAUGAGGAUCACCCAUGUAGCUAGACGUGCACGCGAUGCUCGUCAGACUACCAGAUG [salish99_TOv1_r3_045] (puzzle: Sensor v3, turn-off variant 1)	45.1			apparent KD of MS2 coat protein [3]: 48.6 nM; apparent KD of MS2 coat protein [4]: 59.5 nM
UUUUUCUGUGUGAGGAUAUACUUUGUUUGGUCGUUGUAGAAGGCACAUGAGGAUCACCCAUGUAGUUUGUUGUG [JR_BME4_Sub013] (puzzle: Brourd's mod of Exclusion 4)	23			
UUGUUGUAUGUAGGAUAUGCAUGUUAUUAUUAUGCAGAAGGACAUGAGGAUCACCCAUGUGUAUUAUUAUUAUAUAUUAUAUAU [Title] (Eterna round: R96, puzzle: Exclusion NG 1)				apparent KD of MS2 coat protein [2]: 15.4 nM
GGCAAUAACGAGGAUAUCCUAUGGGAAACCAUAGGAGAAGGUGUAACAUGAGGAUCACCCAUGUUCCUCAAGCC [Mat - Exclusion 6 - Eli Mod - D67] (puzzle: Exclusion 6)	34.7			apparent KD of MS2 coat protein [3]: 43.3 nM; apparent KD of MS2 coat protein [4]: 39.8 nM
GUGUAAGGAGGAUAUACAUGAGGAUCACCCAUGUGAAUAAGAUAGAAUAAGAUAAAGUGUAGAAGGCUUAGUGU [Excluse me!!! 25 - Jieux - Exclusion 3] (puzzle: Exclusion 3)	38.6			apparent KD of MS2 coat protein [3]: 39 nM; apparent KD of MS2 coat protein [4]: 44.7 nM
CUUUUGUGAGGAUAUCAGUAGUAAAUAAAUAAAAUUACUUCUGAGAAGGCACAUGAGGAUCACCCAUGUUCCUC [salish99_ex3_r3_087] (puzzle: Exclusion 4)	35.7			
GUUAGACAUGAGGAUCACCCAUGUGAGGAUAUGAUGCGAUCGUGAUGAAAUGAUCGCAUCAGAAGGCACAUAUG [Mat - Mod of JL D67] (puzzle: Exclusion 1)	123			
AAUAACAGAGGAUAUACUGUUUUAUGUAUUUAUUAUUUUAAACAUGAGGAUCACCCAUGUAGAAGGCUGAAUGA [JMF 55] (puzzle: Exclusion 2)	20.7			
UCGACUACAGUAGGAUAUGUAGGAUAUGUGGUUGAGGAUCACCCAACCACUUCAACGACAGAAGGACAGAAGGACUGACAUCGU [pwkr exNG2 2xFMN 1xF5.4] (Eterna round: R96, puzzle: Exclusion NG 2)		21.5	20.4	apparent KD of MS2 coat protein [2]: 14.2 nM
